# Results from the supplement of paper PMC9112550, “Optimization of the antimicrobial peptide Bac7 by deep mutational scanning” (BMC Biology, 2022).
# System: Escherichia coli TOP10
# Assay: shrunken log2 fold change of peptide-encoding DNA abundance (4.5 h post-induction vs induction); higher = less antimicrobial activity (less host growth inhibition)
# Settings: time post-induction: 4.5 h; library: site-saturation at positions 5, 18, 19, 20
# 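Note: peptides expressed intracellularly from a pBAD plasmid library in pooled LB shake-flask culture, induced with 0.3% L-arabinose, DNA abundance read by NGS, three biological replicates, DESeq2 with apeglm shrinkage.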
row,Sequence,shrunken log2 fold change
1,RRIRTRPPRLPRPRPRPDENPRP,0.0019
2,RRIRWRPPRLPRPRPRPDMGPRP,0.454
3,RRIRPRPPRLPRPRPRPKYAPRP,-0.102
4,RRIRCRPPRLPRPRPRPFTMPRP,-1.13
5,RRIRSRPPRLPRPRPRPKLKPRP,0.149
6,RRIRDRPPRLPRPRPRPSDMPRP,-0.307
7,RRIRRRPPRLPRPRPRPRREPRP,0.435
8,RRIRNRPPRLPRPRPRPQHMPRP,-0.605
9,RRIRQRPPRLPRPRPRPPWSPRP,0.223
10,RRIRFRPPRLPRPRPRPKWDPRP,0.117
11,RRIRVRPPRLPRPRPRPDNQPRP,-0.0991
12,RRIRPRPPRLPRPRPRPTCYPRP,-0.127
13,RRIRTRPPRLPRPRPRPTRGPRP,0.705
14,RRIRHRPPRLPRPRPRPMKHPRP,-0.0367
15,RRIRYRPPRLPRPRPRPQCEPRP,-0.0652
16,RRIRSRPPRLPRPRPRPNPHPRP,-0.139
17,RRIRHRPPRLPRPRPRPGGQPRP,0.0463
18,RRIRFRPPRLPRPRPRPYHGPRP,-0.114
19,RRIRIRPPRLPRPRPRPHILPRP,-1
20,RRIRMRPPRLPRPRPRPLFVPRP,0.286

row,Sequence,shrunken log2 fold change
1,RRIRDRPPRLPRPRPRPHIEPRP,0.0695
2,RRIRDRPPRLPRPRPRPRILPRP,-0.116
3,RRIRRRPPRLPRPRPRPRRNPRP,0.223
4,RRIRLRPPRLPRPRPRPKSLPRP,-0.467
5,RRIRHRPPRLPRPRPRPVDEPRP,0.184
6,RRIRMRPPRLPRPRPRPYICPRP,-0.201
7,RRIRHRPPRLPRPRPRPTDPPRP,0.138
8,RRIRDRPPRLPRPRPRPQSLPRP,-0.0208
9,RRIRHRPPRLPRPRPRPHFMPRP,0.00955
10,RRIRWRPPRLPRPRPRPRKDPRP,-0.0246
11,RRIRTRPPRLPRPRPRPCHRPRP,-0.000687
12,RRIRSRPPRLPRPRPRPYIMPRP,-0.845
13,RRIRMRPPRLPRPRPRPFHIPRP,-0.269
14,RRIRMRPPRLPRPRPRPWYPPRP,-0.786
15,RRIRFRPPRLPRPRPRPKWEPRP,0.223
16,RRIRFRPPRLPRPRPRPECRPRP,-0.0408
17,RRIRCRPPRLPRPRPRPDLCPRP,-0.047
18,RRIRFRPPRLPRPRPRPDGWPRP,0.13
19,RRIRSRPPRLPRPRPRPWPPPRP,0.51
20,RRIRFRPPRLPRPRPRPWVKPRP,-0.00968

row,Sequence,shrunken log2 fold change
1,RRIRLRPPRLPRPRPRPMKMPRP,-0.409
2,RRIRKRPPRLPRPRPRPKYQPRP,0.0989
3,RRIRIRPPRLPRPRPRPKYYPRP,-0.632
4,RRIRCRPPRLPRPRPRPQEGPRP,-0.0193
5,RRIRWRPPRLPRPRPRPCLSPRP,-0.15
6,RRIRHRPPRLPRPRPRPRRQPRP,0.0256
7,RRIRFRPPRLPRPRPRPIGFPRP,-0.27
8,RRIRIRPPRLPRPRPRPTVNPRP,-0.608
9,RRIRWRPPRLPRPRPRPMLCPRP,0.216
10,RRIRARPPRLPRPRPRPVTYPRP,-0.265
11,RRIRTRPPRLPRPRPRPSIQPRP,-0.865
12,RRIRNRPPRLPRPRPRPREQPRP,-0.00697
13,RRIRGRPPRLPRPRPRPCFGPRP,0.262
14,RRIRDRPPRLPRPRPRPTNVPRP,-0.138
15,RRIRCRPPRLPRPRPRPIRNPRP,-0.182
16,RRIRQRPPRLPRPRPRPKNHPRP,-0.23
17,RRIRGRPPRLPRPRPRPYEYPRP,0.127
18,RRIRTRPPRLPRPRPRPPPAPRP,0.746
19,RRIRMRPPRLPRPRPRPPKTPRP,0.891
20,RRIRHRPPRLPRPRPRPDHGPRP,-0.115
